Source: patent publication US20190389955A1

Molecular target: human FLT3/FLK2 receptor protein (human) (UniProt P36888)
Experiment: flow cytometry on SP2/0 cells expressing human FLT3/FLK2; same table: unstained SP2/0 clone 3 6063, secondary Ab 9522

Sequence of human FLT3/FLK2 receptor protein (human) (P36888 27-993): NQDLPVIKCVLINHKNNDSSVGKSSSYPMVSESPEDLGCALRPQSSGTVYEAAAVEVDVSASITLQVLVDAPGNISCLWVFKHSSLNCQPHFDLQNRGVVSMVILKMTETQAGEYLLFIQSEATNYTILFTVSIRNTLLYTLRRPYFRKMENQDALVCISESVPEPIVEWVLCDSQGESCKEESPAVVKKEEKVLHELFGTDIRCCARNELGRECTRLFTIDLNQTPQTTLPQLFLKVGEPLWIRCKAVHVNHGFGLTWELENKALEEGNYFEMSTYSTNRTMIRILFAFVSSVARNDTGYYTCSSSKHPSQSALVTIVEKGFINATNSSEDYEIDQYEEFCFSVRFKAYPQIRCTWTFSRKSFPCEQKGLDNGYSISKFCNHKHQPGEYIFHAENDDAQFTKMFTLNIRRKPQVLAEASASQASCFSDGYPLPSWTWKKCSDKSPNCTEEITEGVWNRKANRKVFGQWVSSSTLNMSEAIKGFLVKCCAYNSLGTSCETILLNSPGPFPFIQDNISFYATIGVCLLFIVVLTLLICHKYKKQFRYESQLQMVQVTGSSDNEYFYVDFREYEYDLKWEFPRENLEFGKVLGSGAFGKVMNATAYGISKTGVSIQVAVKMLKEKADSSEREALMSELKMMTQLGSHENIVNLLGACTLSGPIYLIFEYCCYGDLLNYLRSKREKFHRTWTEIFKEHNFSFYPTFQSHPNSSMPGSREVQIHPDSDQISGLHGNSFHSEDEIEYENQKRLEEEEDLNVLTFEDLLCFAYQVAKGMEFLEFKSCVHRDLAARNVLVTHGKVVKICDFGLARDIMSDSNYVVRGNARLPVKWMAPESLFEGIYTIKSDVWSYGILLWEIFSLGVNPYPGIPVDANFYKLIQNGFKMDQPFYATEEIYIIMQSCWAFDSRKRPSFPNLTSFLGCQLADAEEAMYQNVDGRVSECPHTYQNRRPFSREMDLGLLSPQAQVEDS

MFI: 11500
Substance: ISOTYPE CTR (antibody)
